The results in this text go back to the Human Domainome abundance scans (Beltran et al. 2025).

± gives the uncertainty stated by the source.

A short description of this series: abundance fitness (aPCA) (normalised: wild type 0, dead -1); higher = more abundant; growth selection in yeast, the domain comes from the species named. Conditions: Homo sapiens.
Turning to “Homeobox expressed in ES cells 1 A114T, Q9UBX0”, the abundance fitness was found to be 0.493 ± 0.057. Take “Homeobox expressed in ES cells 1 C131H, Q9UBX0”: the abundance fitness was determined as 0.419 ± 0.15. “Homeobox expressed in ES cells 1 D136F, Q9UBX0”: the abundance fitness stood at 0.211 ± 0.24. For “Homeobox expressed in ES cells 1 D140E, Q9UBX0” the value was -0.047 ± 0.07; for “Homeobox expressed in ES cells 1 D150A, Q9UBX0”, 0.089 ± 0.12. For “Homeobox expressed in ES cells 1 G134D, Q9UBX0” the value was -0.02 ± 0.17; for “Homeobox expressed in ES cells 1 I120L, Q9UBX0”, -0.192 ± 0.15; for “Homeobox expressed in ES cells 1 I135V, Q9UBX0”, -0.069 ± 0.073.

In the case of “Homeobox expressed in ES cells 1 I152V, Q9UBX0”, the abundance fitness is -0.315 ± 0.12. “Homeobox expressed in ES cells 1 I154V, Q9UBX0” displayed an abundance fitness of -0.028 ± 0.12. As to “Homeobox expressed in ES cells 1 K164W, Q9UBX0”, the abundance fitness is -0.547 ± 0.16. Take “Homeobox expressed in ES cells 1 N118Q, Q9UBX0”: the abundance fitness was -0.35 ± 0.35. For “Homeobox expressed in ES cells 1 N125A, Q9UBX0” the value was -0.36 ± 0.12; for “Homeobox expressed in ES cells 1 N130T, Q9UBX0”, -0.144 ± 0.066.

Regarding “Homeobox expressed in ES cells 1 P111N, Q9UBX0”, the abundance fitness is 0.704 ± 0.15.

In the case of “Homeobox expressed in ES cells 1 Q117L, Q9UBX0”, the abundance fitness was -0.548 ± 0.16. The substance “Homeobox expressed in ES cells 1 Q143M, Q9UBX0” displayed an abundance fitness of -0.011 ± 0.19. For “Homeobox expressed in ES cells 1 R128A, Q9UBX0” the value was -0.277 ± 0.16; for “Homeobox expressed in ES cells 1 V122E, Q9UBX0”, 0.12 ± 0.15; for “Homeobox expressed in ES cells 1 V129Q, Q9UBX0”, 0.143 ± 0.25.
